From US20220098297A1

What was measured:
human TNF-α (human) = human TNF-α (human) (UniProt P01375); test: cell-based or functional assay
human IL-17A (human) = human IL-17A (human) (UniProt Q16552); test: cell-based or functional assay
UniProt Q16552, sequence (Q16552 24-155 limits assumed): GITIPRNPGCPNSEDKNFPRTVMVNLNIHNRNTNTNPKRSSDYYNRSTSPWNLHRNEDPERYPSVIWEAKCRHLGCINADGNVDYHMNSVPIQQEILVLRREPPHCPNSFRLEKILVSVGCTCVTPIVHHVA

UniProt P01375, sequence (P01375 77-233 limits assumed): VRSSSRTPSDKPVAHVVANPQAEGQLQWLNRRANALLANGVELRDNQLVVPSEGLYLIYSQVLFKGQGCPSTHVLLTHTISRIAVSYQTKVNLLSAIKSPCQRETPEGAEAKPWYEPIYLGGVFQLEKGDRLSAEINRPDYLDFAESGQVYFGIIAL

IC50, hIL-6 secretion of commercial RA-FLS cells stimulated with IL-17A and TNF-α (co-neutralization) (human TNF-α (human)): 0.0149 nM | IC50, hIL-6 secretion of commercial RA-FLS cells stimulated with hTNF-α (human TNF-α (human)): 0.0186 nM | IC50, hIL-6 secretion of commercial RA-FLS cells stimulated with IL-17A and TNF-α (co-neutralization) (human IL-17A (human)): 0.0149 nM | IC50, hIL-6 secretion of commercial RA-FLS cells stimulated with hIL-17A (human IL-17A (human)): 0.371 nM
Substance: LY3114062 (bispecific antibody)
